The source of these data is paper PMC5050560.

The chains are these.
B1: Pr29 (dsDNA)
DNA 1: TAAACCTTGTATTATAGAGTACTATGTATTATTATAGTAAATATAAGTACTATACATTATAGAG
DNA 2: CTCTATAATGTATAGTACTTATATTTACTATAATAATACATAGTACTCTATAATACAAGGTTTA
B2: Pr41 (dsDNA)
DNA 1: TACTATACATTATAGAGTAGTA
DNA 2: TACTACTCTATAATGTATAGTA
B3: Pr54 (dsDNA)
DNA 1: GTAAATATAAGTACTATACATTATAGAGTAG
DNA 2: CTACTCTATAATGTATAGTACTTATATTTAC
B4: Pr48 (PnorV) (dsDNA)
DNA 1: TTTTAACCCTCCTAAAATTTATCATTATATAAGTAACATACCCAATTTTGAGGTGAATGAAACAAAAGATGTCATGATAAGTCATGTAAAACAATAGTTT
DNA 2: AAACTATTGTTTTACATGACTTATCATGACATCTTTTGTTTCATTCACCTCAAAATTGGGTATGTTACTTATATAATGATAAATTTTAGGAGGGTTAAAA
B5: Pr68 (dsDNA)
DNA 1: GTACTATACATTATAGAGTAG
DNA 2: CTACTCTATAATGTATAGTAC
B6: Pr27 (PcdpadR1) (dsDNA)
DNA 1: TAAACCTTGTATTATAGAGTACTATGTATTATTATAGTAAATATAAGTACTATACATTATAGAGTAGTAGGTGAAAAGGCGGTGGTACATAATGCAGTTA
DNA 2: TAACTGCATTATGTACCACCGCCTTTTCACCTACTACTCTATAATGTATAGTACTTATATTTACTATAATAATACATAGTACTCTATAATACAAGGTTTA
B7: Pr111 (dsDNA)
DNA 1: ATATAGGAAATATAGAACAGATTTTCCAAGAAATCTAAATATTCTATGACCACGTGAATTGCTATGCACACATGTTGATAATCCATATTTTAAATCTAAA
DNA 2: TTTAGATTTAAAATATGGATTATCAACATGTGTGCATAGCAATTCACGTGGTCATAGAATATTTAGATTTCTTGGAAAATCTGTTCTATATTTCCTATAT
B8: Pr32 (dsDNA)
DNA 1: TGTATTATAGAGTACTATGTATTATTATAGTAAATATAAGTACTATACATTATAGAGTAGTAGG
DNA 2: CCTACTACTCTATAATGTATAGTACTTATATTTACTATAATAATACATAGTACTCTATAATACA
B9: Pr70 (dsDNA)
DNA 1: TTATTTACCCCCTATTGTTTTATTAGGCTAAGTTGATGATTTATTTAACCTATGCTATAATTTTATCACTATGGTACTATATTACAATAATGCACTTTTT
DNA 2: AAAAAGTGCATTATTGTAATATAGTACCATAGTGATAAAATTATAGCATAGGTTAAATAAATCATCAACTTAGCCTAATAAAACAATAGGGGGTAAATAA
B10: Pr34 (dsDNA)
DNA 1: TTTGATGAAAAAAATGTTACAATATTTAATATTGAAAATGGCGATGTTATTAGCATAGAGAATGGAGGAAATTAAATGAAACAAGAATACGGTGCAAGTC
DNA 2: GACTTGCACCGTATTCTTGTTTCATTTAATTTCCTCCATTCTCTATGCTAATAACATCGCCATTTTCAATATTAAATATTGTAACATTTTTTTCATCAAA
B11: Pr31 (dsDNA)
DNA 1: AATATAAGTACTATACATTATAGAGTAGTAGGTGAAAAGGCGGTGGTACATAATGCAGTTA
DNA 2: TAACTGCATTATGTACCACCGCCTTTTCACCTACTACTCTATAATGTATAGTACTTATATT
B12: Pr30 (dsDNA)
DNA 1: TATAGTAAATATAAGTACTATACATTATAGAGTAGTAGGTGAAAAGGCGGTGGTACATAATGCAGTTA
DNA 2: TAACTGCATTATGTACCACCGCCTTTTCACCTACTACTCTATAATGTATAGTACTTATATTTACTATA
B13: Pr120 (dsDNA)
DNA 1: TTTTTATTCCTCCCTTTTTATTTATTAAAATTTATTATATTTTTCTATGATTCACTTAATTAAATTTCTCCATCTACAATTTTTCCATCTACAGATATAG
DNA 2: CTATATCTGTAGATGGAAAAATTGTAGATGGAGAAATTTAATTAAGTGAATCATAGAAAAATATAATAAATTTTAATAAATAAAAAGGGAGGAATAAAAA
B14: Pr35 (dsDNA)
DNA 1: CATTTAAAGAATGGGATATTATGTAATTGTAGATTATGTAGGTTTAAATTATTTATTTTTGTTTTAGCAAATTCTATGAATAGAAGGGGTTTGATTATGG
DNA 2: CCATAATCAAACCCCTTCTATTCATAGAATTTGCTAAAACAAAAATAAATAATTTAAACCTACATAATCTACAATTACATAATATCCCATTCTTTAAATG
B15: Pr88 (dsDNA)
DNA 1: GTACTATGTATTATTATAGTAA
DNA 2: TTACTATAATAATACATAGTAC
B16: Pr43 (dsDNA)
DNA 1: CTATGTATTATTATAGTAAATATAAGTACTATACATTA
DNA 2: TAATGTATAGTACTTATATTTACTATAATAATACATAG
B17: Pr53 (dsDNA)
DNA 1: AATATAAGTACTATACATTATAGAG
DNA 2: CTCTATAATGTATAGTACTTATATT
B18: Pr67 (dsDNA)
DNA 1: AGTACTATACATTATAGAGTAGT
DNA 2: ACTACTCTATAATGTATAGTACT
B19: Pr42 (dsDNA)
DNA 1: CTATACATTATAG
DNA 2: CTATAATGTATAG
B20: Pr33 (dsDNA)
DNA 1: GAGTACTATGTATTATTATAGTAAATATAAGTACTATACATTATAGAGTAGTAG
DNA 2: CTACTACTCTATAATGTATAGTACTTATATTTACTATAATAATACATAGTACTC
B21: Pr69 (dsDNA)
DNA 1: ATGCTATAATTTTATCACTATGGTACTATATTACAATAATGCACTTTTTTGTAATATAGTATCTAAAAAGATACTTTAAAATAAATAAAGGAGCTCAAAA
DNA 2: TTTTGAGCTCCTTTATTTATTTTAAAGTATCTTTTTAGATACTATATTACAAAAAAGTGCATTATTGTAATATAGTACCATAGTGATAAAATTATAGCAT
B22: Pr121 (dsDNA)
DNA 1: AAGCTACCTTGCATAAATATCTTGGATAGTATATTGATTATATAATCAGTAAATGTTATACTTTTCATGACGATAAAAACATTTTAGTCATAAGGGGGTT
DNA 2: AACCCCCTTATGACTAAAATGTTTTTATCGTCATGAAAAGTATAACATTTACTGATTATATAATCAATATACTATCCAAGATATTTATGCAAGGTAGCTT

For the data set, the target named is cdPadR1 (Clostridium difficile R20291, UniProt A0A9R0CDW8 1-109). In words: EMSA; 20 mM Tris pH 8.0, 120 mM KCl, 10 mM MgCl2, 5 mM DTT, 12.5% glycerol, 125 ug/mL heparin, room temperature. The settings on record: protein: recombinant; tags: N-terminal Strep II; chain copies: 2. (Mobility shift assays separate free from complexed probe on a gel.)
As to B1, the binding result is recorded as “binds”.

As for B2, the binding result is “binds”.

Turning to B3, the binding result was “binds”.

Regarding B4, the binding result is “binds”. As to B5, the binding result is “binds”.

Turning to B6, the binding result is “binds”. On to B7, for which the binding result is “binds”. In the case of B8, the binding result is “binds”. With B9, the binding result was “binds”.

As for B10, the binding result was “binds”. Regarding B11, the binding result is listed as “binds”. Regarding B12, the binding result is listed as “binds”. For the molecule B13, the binding result is recorded as “binds”. Consider B14, for which the binding result is listed as “binds”. As to B15, the binding result is reported as “no binding”. For B16, the binding result is given as “no binding”.

With B17, the binding result was “no binding”.

For B18, the binding result was “binds”. Regarding B19, the binding result is listed as “no binding”.

On to B20, for which the binding result is “binds”.

B21: the binding result is on record as “binds”. To B22 belongs “binds”.
